Km and kcat data for one protein are collected here from PMC4859490, “Why p-OMe- and p-Cl-β-Methylphenethylamines Display Distinct Activities upon MAO-B Binding” (PLoS ONE, 2016).

Substrate in the series: COc1ccc(C(C)CN)cc1
The series is described as follows: purified protein. Type of series: biochemical, Homo sapiens. The following applies: FAD substrate binding site (modelled: aromatic cage facing FAD, Tyr398/Tyr435; methoxyl oxygen near Cys172).

What is called Km is the substrate concentration at which the rate is half of its maximum. The term kcat denotes the number of substrate molecules converted per active site and unit of time at saturation.

B1: MAO-B (Homo sapiens) (protein)
chain: SNKCDVVVVGGGISGMAAAKLLHDSGLNVVVLEARDRVGGRTYTLRNQKVKYVDLGGSYVGPTQNRILRLAKELGLETYKVNEVERLIHHVKGKSYPFRGPFPPVWNPITYLDHNNFWRTMDDMGREIPSDAPWKAPLAEEWDNMTMKELLDKLCWTESAKQLATLFVNLCVTAETHEVSALWFLWYVKQCGGTTRIISTTNGGQERKFVGGSGQVSERIMDLLGDRVKLERPVIYIDQTRENVLVETLNHEMYEAKYVISAIPPTLGMKIHFNPPLPMMRNQMITRVPLGSVIKCIVYYKEPFWRKKDYCGTMIIDGEEAPVAYTLDDTKPEGNYAAIMGFILAHKARKLARLTKEERLKKLCELYAKVLGSLEALEPVHYEEKNWCEEQYSGGCYTTYFPPGILTQYGRVLRQPVDRIYFAGTETATHWSGYMEGAVEAGERAAREILHAMGKIPEDEIWQSEPESVDVPAQPITTTFLERHLPSVPGLLRLIGLTTIFSATALGFLAHKRGLLVRV
Take B1: the Km is 87 ± 8 µM and the kcat was found to be 0.233 ± 0.0167 s⁻¹.
